Test results: patent US20110020801A1, “Carboxylesterase-1 Polymorphisms and Methods of Use Therefor” (priority 2007, published 2011)

What was measured:
[1] = Pharmacokinetic study of orally administered racemic MPH in normal volunteers; format: in vivo, human
Protocol: Analysis of Pharmacokinetic, Hemodynamic, and Statistical Data. Standard pharmacokinetic analyses were applied to the MPH data using WinNonLin software (Pharsight, Mountainview, Calif.) and are described in a previous publication.^10 The AUC, Cmax, and t1/2 were analyzed using the Extreme Studentized Deviate (ESD) single-outlier procedure^12 to determine whether the parameter measurements for the slow metabolizer constituted true statistical outliers. For each parameter, the ESD procedure confirmed the measurement as an outlier at the p<0.01 level. Because this procedure is known to be conservative, the data from the aberrant metabolizer were reassessed using a similar procedure with respect to the normal participants only.

[2] = substrate: CCOC(=O)C1=C[C@@H](OC(CC)CC)[C@H](NC(C)=O)[C@@H](N)C1; assay: Oseltamivir phosphate hydrolysis to oseltamivir carboxylate by WT hCES1 S9 (HPLC); format: biochemical, human; settings: other: OP conversion to OC, 37° C., 10 min
[3] = substrate: COC(=O)[C@H](c1ccccc1)[C@H]1CCCCN1; assay: purified protein, by the assay type; settings: other: MPH hydrolysis, S9 0.5 mg/mL, 37° C., 2 hours, mean ± S.D. (n = 3)

Molecule: CCOC(=O)C(c1ccccc1)C1CCCCN1 (stereo not shown) [ethylphenidate]
- ethylphenidate concentrations after co-administration of methylphenidate with ethanol ([1]; every subject except the slow metabolizer): Detectable concentrations
- ethylphenidate formation after methylphenidate and ethanol administered together ([1]; slow metabolizer): unable to form ethylphenidate

B1: WT hCES1 (Homo sapiens) (protein)
chain: GHPSSPPVVDTVHGKVLGKFVSLEGFAQPVAIFLGIPFAKPPLGPLRFTPPQPAEPWSFVKNATSYPPMCTQDPKAGQLLSELFTNRKENIPLKLSEDCLYLNIYTPADLTKKNRLPVMVWIHGGGLMVGAASTYDGLALAAHENVVVVTIQYRLGIWGFFSTGDEHSRGNWGHLDQVAALRWVQDNIASFGGNPGSVTIFGESAGGESVSVLVLSPLAKNLFHRAISESGVALTSVLVKKGDVKPLAEQIAITAGCKTTTSAVMVHCLRQKTEEELLETTLKMKFLSLDLQGDPRESQPLLGTVIDGMLLLKTPEELQAERNFHTVPYMVGINKQEFGWLIPMQLMSYPLSEGQLDQKTAMSLLWKSYPLVCIAKELIPEATEKYLGGTDDTVKKKDLFLDLIADVMFGVPSVIVARNHRDAGAPTYMYEFQYRPSFSSDMKPKTVIGDHGDELFSVFGAPFLKEGASEEEIRLSKMVMKFWANFARNGNPNGEGLPHWPEYNQKEGYLQIGANTQAAQKLKDKEVAFWTNLFAKKAVEKPPQTEHIEL
notes: inserting a stop codon after CES1A1 gene to yield the constructs expressing CES1 without V5-His tag; expressed in transfected cells
- Km [2]: 1381.6 µM
- Vmax [2]: 145.3 nmole/min/mg protein

B2: WT CES1 (Homo sapiens) (protein)
chain: GHPSSPPVVDTVHGKVLGKFVSLEGFAQPVAIFLGIPFAKPPLGPLRFTPPQPAEPWSFVKNATSYPPMCTQDPKAGQLLSELFTNRKENIPLKLSEDCLYLNIYTPADLTKKNRLPVMVWIHGGGLMVGAASTYDGLALAAHENVVVVTIQYRLGIWGFFSTGDEHSRGNWGHLDQVAALRWVQDNIASFGGNPGSVTIFGESAGGESVSVLVLSPLAKNLFHRAISESGVALTSVLVKKGDVKPLAEQIAITAGCKTTTSAVMVHCLRQKTEEELLETTLKMKFLSLDLQGDPRESQPLLGTVIDGMLLLKTPEELQAERNFHTVPYMVGINKQEFGWLIPMQLMSYPLSEGQLDQKTAMSLLWKSYPLVCIAKELIPEATEKYLGGTDDTVKKKDLFLDLIADVMFGVPSVIVARNHRDAGAPTYMYEFQYRPSFSSDMKPKTVIGDHGDELFSVFGAPFLKEGASEEEIRLSKMVMKFWANFARNGNPNGEGLPHWPEYNQKEGYLQIGANTQAAQKLKDKEVAFWTNLFAKKAVEKPPQTEHIEL
- Km [3]: 663.5 ± 210.0 µM
- Vmax [3]: 177.2 ± 29.6 pmole/min/mg protein
- Vmax/Km [3]: 0.27 μl/min/mg protein
